According to patent US20230331824A1 (ROCKEFELLER UNIVERSITY, published 2023):
Like-named read-outs stand apart in the source and are kept apart here.

Legend:
[1] = molecular target: T1, recombinant SARS-CoV-2 spike S2-His (SARS-CoV-2, UniProt P0DTC2 686-1213); assay: pull-down on immobilized S2, band quantified
T1 construct: domain: S2

[2] = molecular target: T2, recombinant SARS-CoV-2 spike S1-His (SARS-CoV-2, UniProt P0DTC2 16-685); assay: pull-down on immobilized S1, band quantified
T2 construct: domain: S1

[3] = molecular target: T3, recombinant SARS-CoV-2 spike RBD (untagged) (SARS-CoV-2, UniProt P0DTC2 319-541); assay: SPR
T3 construct: domain: RBD

[4] = molecular target: T4, SARS-CoV-2 spike protein (SARS-CoV-2, UniProt P0DTC2 14-1273); assay: cell-based or functional assay
[5] = molecular target: SARS-CoV-1 spike on pseudovirus (SARS-CoV-1, UniProt P59594 14-1255); assay: cell-based or functional assay
[6] = molecular target: T3, recombinant SARS-CoV-2 spike RBD …; assay: periplasm pull-down on immobilized S1-RBD, SDS-PAGE
[7] = molecular target: T3, recombinant SARS-CoV-2 spike RBD …; assay: SPR; remark: listed apart in the source
[8] = molecular target: T4, SARS-CoV-2 spike protein; assay: cell-based or functional assay; remark: listed apart in the source

B1: S2-24 (VHH)
VHH: QVQLVESGGGLVQAGGSLRLSCAASGVTFSSHHMAWYRQTPGKQRELVATLASGGDTNYADSVKGRFTISRDNTKNTIYLQMNSLKPEDTAVYYCNARLWATGFRDYWGQGTQVTVS
notes: also called S2 Nanobody # 24
Does B1 bind [1]?
Result: binds

B2: S2-37 (VHH)
VHH: QVQVMESGGGLVQAGGSLRLSCAASTGILGGYDMRWYRQTPGNERELVASISSDGSTNYVDFVKGRFTISSDNAKNTVYLQMDSLKSEDTAVYYCNMRSTYYAIDYWGRGTQVTVS
notes: also called S2 Nanobody # 37
Does B2 bind [1]?
Result: binds

B3: S1-13 (VHH)
VHH: EVQLVESGGGLVQPGGSLKLSCAASGFTLDDYTIGWFRQAPGKEREGVSYISSSGSNSYYEDSVKGRFTISRDNAKSTVYLQMNSLKPEDTAVYYCAARRVWQQTIVVRGPVHYEYWGHGTQVTVS
notes: also called S1 Nanobody # 13
Does B3 bind [2]?
Result: binds

B4: S1-RBD-16 (VHH)
VHH: QVQLVESGGGLVQSGGSLRLSCVASGRGFDRYPMGWFRQAPGKEREFVGGINWNGANTYYADSVKGRFTISRDNTKNTVYLQMNSLKPEDTALYYCAADQHYMGSPPPKEYEYDYWGQGTQVTVS
With B4 as the binder, how does the Kd [3] read?
The Kd was 3.73 nM.

And the koff [3]?
The koff was 6.25e-05 s⁻¹.

And the kon [3]?
Its kon is 16800 M⁻¹ s⁻¹.

What about the “PSV neutralisation IC50” value [4] of the same binder?
The value was 79.2 nM.

B5: S1-1 (VHH)
VHH: QVQLVESGGGLVQAGGSLRLSCAASGMPFSSYAMGWFRQAPGKEREFVAAVNWNGISTYLADSVKGRFTASRDNAKNTAYLQMNSLKPEDTAVYYCAADSKGWSEWGMDYWGKGTLVTVS
For B5, which “SARS-CoV-1 PSV neutralisation IC50” value [5] is on record?
The value was 8.62 nM.

B6: S2-45 (VHH)
VHH: QVQLVESGGGLVQAGGSLRLSCAASGLTFSSRAMAWFRQAPGKEREFVARISWSGRNTYYGDSVKGRFTISRDNAKNTVYLQMSSLEPEDTAVYRCAADQQYYNRYYNDEQGYAFWGQGTQVTVS
notes: also called S2 Nanobody # 45
Does B6 bind [1]?
Result: binds

B7: S2-34 (VHH)
VHH: QVQLVESGGGLVQTGGSLRLSCAASGITFNTYGMGWYRQAPGKQRELVAGIPSIGNINYARFVQGRFTVSRDDGKKAVYLQMNSLKPEDTAIYYCNLQTRFGTNYWGQGTQVTVS
notes: also called S2 Nanobody # 34
Does B7 bind [1]?
Result: binds

B8: S1-18 (VHH)
VHH: QVRLVESGGGLVQPGGSLRLSCVVSGVSGSAFRFNRLGWYRQPPGKERELVASISSGGSTNYADSVKGRFTISRDNAKSTVSLQMNSLKPEDTAVYYCNIRADFFSSGRTGDWGQGTQVTVS
notes: also called S1 Nanobody # 18
Does B8 bind [2]?
Result: binds

B9: S2-49 (VHH)
VHH: DVQLVESGGGLVQPGGSLRLSCAVSGLTLPYFTISWFRQAPGKEREWVSSSRITGNTYYADSVKGRFTVSRDNAKSTVYLQMNRLKAEDTATYYCASGRNINYYTNSAEYNYWGRGTQVTVS
notes: also called S2 Nanobody # 49
Does B9 bind [1]?
Result: binds

B10: S2-12 (VHH)
VHH: QVQLVESGGGLVQAGGSLRLSCVASEPTFSSRTMGWFRQAPGKERDFVAAMPWWKGALPNYKDSVKGRFTISIDSAKNTMYLQMNSLKPEDTAVYYCAASKTWSPRTEVATEHEFRGQGTQVTVS
notes: also called S2 Nanobody # 12
Does B10 bind [1]?
Result: binds

B11: S2-20 (VHH)
VHH: QVQLVESGGGLVQPGGSLRLSCAASGFTLTYYTISWFRQAPGKEREWVSSSRISGNTYYTDSVKGRFTISRDNAKSVVYLQMNSLKPEDTATYYCASGRNIPYDTYTNPTKYDYWGRGTQVTVS
notes: also called S2 Nanobody # 20
Does B11 bind [1]?
Result: binds

B12: S2-23 (VHH)
VHH: QVQLVESGGGLVQPGGSLRLSCAASGRTFSSAMMGWFRQAPGKEREFVASIDWRYQYRYYADSVKGRFTISRDNAKNMVYLQMNSLKPEDTAVYYCACQIERSGIYHYEDSNKYQSWGQGTQVSVS
notes: also called S2 Nanobody # 23
Does B12 bind [1]?
Result: binds

B13: S1-3 (VHH)
VHH: QVQLVESGGGLVQAGGSLRLSCAASGSTFSNTGLGWYRQAPGKQREWVASISPSGSTSYLDSVRGRFIFSRDNAKNIAYLQMNSLKPEDTAVYYCNTLPRSGSWGQGTQVTVS
For B13, which “SARS-CoV-1 PSV neutralisation IC50” value [5] is on record?
Its value is 4160 nM.

B14: S1-RBD-13 (VHH)
VHH: EVQLVESGGGLVQAGGSLRLSCAAPTLTLSSHTIGWFRQAPGKEREGVSYIPMTGLPIYCRDSVKGRFTISTDNAKNTVYLQMDSLKPEDTAVYYCAALLGVRSRMCPESVYTYWGQGTQVTVS
notes: also called S1-RBD Nanobody # 13
Does B14 bind [6]?
Result: binds

B15: S1-RBD-23 (VHH)
VHH: QVHLVESGGDLVQPGGSLRLSCVASGSGFENNAITWYRQAPGKERELVSGITSGGSTNYADSVKGRFTISRDNAKNTVYLEMNSLKPEDTAVYLCQAVAWDSRRRSVVAFWGQGTQVTVS
Which results are given for B15?
Kd [3]: 0.0159 nM; koff [3]: 4.61e-05 s⁻¹; kon [3]: 2.89e+06 M⁻¹ s⁻¹; PSV neutralisation IC50 [4]: 7.31 nM

B16: S1-RBD-40 (VHH)
VHH: QVQLVESGGGLVQAGGSLRLSCAASGITFSNYGMVWWRQAPGKQREFVASISSGRDTNYADFVKGRFTISRDNAKNTVHLQMNSLKPEDTAVYYCYTVTDRSDYWGQGTQVTVS
Which Kd [7] does the source give for B16 here?
Its Kd is 0.0371 nM.

And the koff [7]?
The koff was 2.77e-05 s⁻¹.

And the kon [7]?
The kon was 747000 M⁻¹ s⁻¹.

And the “PSV neutralisation IC50” value [8]?
Its value is 25.6 nM.

B17: S2-29 (VHH)
VHH: QVQLVESGGGLVQPGGSLRLSCAASGRIFSSNAMGWYRQAPGKEREWVACISSGSSTNYADSVKGRFTISRDNAKNTVYLQMNSLKPEDTAVYYCISKEVGWCGREGPIGSWGQGTQVTVS
notes: also called S2 Nanobody # 29
Does B17 bind [1]?
Result: binds

B18: S2-30 (VHH)
VHH: QVQLVESGGGLVQAGGSLRLSCAASGSTFGNYAMGWYRQPPQAPGNQRDLVAFISTTGSTNYADSVKGRFTISRDNAKNTMYLQMNSLKPEDTAVYYCQAIERIVGYVSWGQGTQVTVS
notes: also called S2 Nanobody # 30
Does B18 bind [1]?
Result: binds

B19: S1-RBD-29 (VHH)
VHH: QVQLVESGGGLVQDGGSLRLSCAASGLASIVFNMGWFRQAPGKEREFVAGILGSGQSTYYGNSVKGRFTISRDSAKNTVYLQMNSLKPEDTAVYYCAAGGRLDLVNTTGGYEPTYWGQGTQVTVS
Which results are given for B19?
Kd [7]: 2.51 nM; koff [7]: 0.00135 s⁻¹; kon [7]: 536000 M⁻¹ s⁻¹; PSV neutralisation IC50 [8]: 9.53 nM

B20: S1-8 (VHH)
VHH: QVQLVESGGGLVQAGGSLRLSCAASGRVLSSYVMGWFRQAPGKEREFVAAIRWNGGSTFYADSVKGRLTISRDNAKNTVYLQMNSLKPEDTAAYYCAASPRTMYDATYYYSRTSYDYWGQGTQVTVS
notes: also called S1 Nanobody # 8
Does B20 bind [2]?
Result: binds

B21: S2-44 (VHH)
VHH: QVQFVESGGGLVQPGGSLRLSCVGSEFTLDNYDIGWFRQAPGKEREWVSCITPRGNIINYADSVKGRFTISRDNAKNTAFLQMNSLKPEDTAVYYCARSSALYDCSQRQTRFFSSWGQGTQVTVS
notes: also called S2 Nanobody # 44
Does B21 bind [1]?
Result: binds
